The text below walks through data of PMC7477632, “Aptamer-based surface-enhanced resonance Raman scattering assay on a paper fluidic platform for detection of cardiac troponin I”.

For series [1], the target named is T1, cardiac troponin I (cTnI) (UniProt P19429 2-210). The experiment in a line: sandwich SERRS lateral-flow assay; detector aptamer on AuNP; N1 on test line as capture; assay LOD 0.016 ng/ml; running buffer PBS with 0.25% Tween; sample pad pretreated with 0.05 M Tris pH 7.6, 0.15 M NaCl, 0.25% Triton X-100; assay temperature not stated. As to conditions: protein: commercial.
T1 sequence (P19429 2-210): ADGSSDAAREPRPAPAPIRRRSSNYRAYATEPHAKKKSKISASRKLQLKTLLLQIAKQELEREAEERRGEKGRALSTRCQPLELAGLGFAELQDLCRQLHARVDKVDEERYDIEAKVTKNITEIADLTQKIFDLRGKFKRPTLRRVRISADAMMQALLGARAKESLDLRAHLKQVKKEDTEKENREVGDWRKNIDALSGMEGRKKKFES

The target of series [2] is T1, cardiac troponin I (cTnI). Briefly: sandwich SERRS lateral-flow assay; capture aptamer on test line; N2 on AuNP as detector; assay LOD 0.016 ng/ml; running buffer PBS with 0.25% Tween; sample pad pretreated with 0.05 M Tris pH 7.6, 0.15 M NaCl, 0.25% Triton X-100; assay temperature not stated. As to conditions: protein: commercial.

Consider CGCATGCCAAACGTTGCCTCATAGTTCCCTCCCCGTGTCC (ssDNA, 5'-amine-spacer 18-spacer 18) [secondary cTnI aptamer], for which the binding result in series [1] was “binds”.

As for TTTTTTCGTGCAGTACGCCAACCTTTCTCATGCGCTGCCCCTCTTA (ssDNA, 5'-biotin) [primary cTnI aptamer], the binding result in series [2] is recorded as “binds”.
